B1: PLOD2 (protein)
chain: ADSEKPSSIPTDKLLVITVATKESDGFHRFMQSAKYFNYTVKVLGQGEEWRGGDGINSIGGGQKVRLMKEVMEHYADQDDLVVMFTECFDVIFAGGPEEVLKKFQKANHKVVFAADGILWPDKRLADKYPVVHIGKRYLNSGGFIGYAPYVNRIVQQWNLQDNDDDQLFYTKVYIDPLKREAINITLDHKCKIFQTLNGAVDEVVLKFENGKARAKNTFYETLPVAINGNGPTKILLNYFGNYVPNSWTQDNGCTLCEFDTVDLSAVDVHPNVSIGVFIEQPTPFLPRFLDILLTLDYPKEALKLFIHNKEVYHEKDIKVFFDKAKHEIKTIKIVGPEENLSQAEARNMGMDFCRQDEKCDYYFSVDADVVLTNPRTLKILIEQNRKIIAPLVTRHGKLWSNFWGALSPDGYYARSEDYVDIVQGNRVGVWNVPYMANVYLIKGKTLRSEMNERNYFVRDKLDPDMALCRNAREMGVFMYISNRHEFGRLLSTANYNTSHYNNDLWQIFENPVDWKEKYINRDYSKIFTENIVEQPCPDVFWFPIFSEKACDELVEEMEHYGKWSGGKHHDSRISGGYENVPTDDIHMKQVDLENVWLHFIREFIAPVTLKVFAGYYTKGFALLNFVVKYSPERQRSLRPHHDASTFTINIALNNVGEDFQGGGCKFLRYNCSIESPRKGWSFMHPGRLTHLHEGLPVKNGTRYIAVSFIDP
B2: NCEH1 (protein)
chain: MRSSCVLLTALVALAAYYVYIPLPGSVSDPWKLMLLDATFRGAQQVSNLIHYLGLSHHLLALNFIIVSFGKKSAWSSAQVKVTDTDFDGVEVRVFEGPPKPEEPLKRSVVYIHGGGWALASAKIRYYDELCTAMAEELNAVIVSIEYRLVPKVYFPEQIHDVVRATKYFLKPEVLQKYMVDPGRICISGDSAGGNLAAALGQQFTQDASLKNKLKLQALIYPVLQALDFNTPSYQQNVNTPILPRYVMVKYWVDYFKGNYDFVQAMIVNNHTSLDVEEAAAVRARLNWTSLLPASFTKNYKPVVQTTGNARIVQELPQLLDARSAPLIADQAVLQLLPKTYILTCEHDVLRDDGIMYAKRLESAGVEVTLDHFEDGFHGCMIFTSWPTNFSVGIRTRNSYIKWLDQNL
B3: AHCYL1 (protein)
chain: SMPDAMPLPGVGEELKQAKEIEDAEKYSFMATVTKAPKKQIQFADDMQEFTKFPTKTGRRSLSRSISQSSTDSYSSAASYTDSSDDEVSPREKQQTNSKGSSNFCVKNIKQAEFGRREIEIAEQDMSALISLRKRAQGEKPLAGAKIVGCTHITAQTAVLIETLCALGAQCRWSACNIYSTQNEVAAALAEAGVAVFAWKGESEDDFWWCIDRCVNMDGWQANMILDDGGDLTHWVYKKYPNVFKKIRGIVEESVTGVHRLYQLSKAGKLCVPAMNVNDSVTKQKFDNLYCCRESILDGLKRTTDVMFGGKQVVVCGYGEVGKGCCAALKALGAIVYITEIDPICALQACMDGFRVVKLNEVIRQVDVVITCTGNKNVVTREHLDRMKNSCIVCNMGHSNTEIDVTSLRTPELTWERVRSQVDHVIWPDGKRVVLLAEGRLLNLSCSTVPTFVLSITATTQALALIELYNAPEGRYKQDVYLLPKKMDEYVASLHLPSFDAHLTELTDDQAKYLGLNKNGPFKPNYYRY
B4: RBBP7 (protein)
chain: ASKEMFEDTVEERVINEEYKIWKKNTPFLYDLVMTHALQWPSLTVQWLPEVTKPEGKDYALHWLVLGTHTSDEQNHLVVARVHIPNDDAQFDASHCDSDKGEFGGFGSVTGKIECEIKINHEGEVNRARYMPQNPHIIATKTPSSDVLVFDYTKHPAKPDPSGECNPDLRLRGHQKEGYGLSWNSNLSGHLLSASDDHTVCLWDINAGPKEGKIVDAKAIFTGHSAVVEDVAWHLLHESLFGSVADDQKLMIWDTRSNTTSKPSHLVDAHTAEVNCLSFNPYSEFILATGSADKTVALWDLRNLKLKLHTFESHKDEIFQVHWSPHNETILASSGTDRRLNVWDLSKIGEEQSAEDAEDGPPELLFIHGGHTAKISDFSWNPNEPWVICSVSEDNIMQIWQMAENIYNDEESDVTTSELEGQGS
B5: JSRP1 (protein)
chain: MSMTTRAWEELDGGLGSCQALEDHSALAETQEDRASATPRLADSGSVPHDSQVAEGPSVDTRPKKMEKEPAARGTPGTGKERLKAGASPRSVPARKKAQTAPPLQPPPPPPALSEELPWGDLSLNKCLVLASLVALLGSAFQLCRDAVPGEAALQARVPEPWVPPSSAPREPSSPLPKFEAQAPPSAPPAPRAEAEVRPKIPGSREAAENDEEEPGEATGEAVREDRVTLADRGPKERPRREGKPRKEKPRKEERPKKERPRKEERPRAAREPREALPQRWESREGGHRPWARDSRDAEPRKKQAWVSPRRPDEEQRPGSRQKLRAGKGRD
B6: ATP5F1A (protein)
chain: QKTGTAEMSSILEERILGADTSVDLEETGRVLSIGDGIARVHGLRNVQAEEMVEFSSGLKGMSLNLEPDNVGVVVFGNDKLIKEGDIVKRTGAIVDVPVGEELLGRVVDALGNAIDGKGPIGSKTRRRVGLKAPGIIPRISVREPMQTGIKAVDSLVPIGRGQRELIIGDRQTGKTSIAIDTIINQKRFNDGSDEKKKLYCIYVAIGQKRSTVAQLVKRLTDADAMKYTIVVSATASDAAPLQYLAPYSGCSMGEYFRDNGKHALIIYDDLSKQAVAYRQMSLLLRRPPGREAYPGDVFYLHSRLLERAAKMNDAFGGGSLTALPVIETQAGDVSAYIPTNVISITDGQIFLETELFYKGIRPAINVGLSVSRVGSAAQTRAMKQVAGTMKLELAQYREVAAFAQFGSDLDAATQQLLSRGVRLTELLKQGQYSPMAIEEQVAVIYAGVRGYLDKLEPSKITKFENAFLSHVVSQHQALLGTIRADGKISEQSDAKLKEIVTNFLAGFEA
B7: IGKV2-40 (protein, UniProt A0A087WW87 20-121, looked up)
Immunoglobulin kappa variable …: EDIVMTQTPLSLPVTPGEPASISCRSSQSLLDSDDGNTYLDWYLQKPGQSPQLLIYTLSYRASGVPDRFSGSGSGTDFTLKISRVEAEDVGVYYCMQRIEFP
B8: PLOD1 (protein)
chain: KGDAKPEDNLLVLTVATKETEGFRRFKRSAQFFNYKIQALGLGEDWNVEKGTSAGGGQKVRLLKKALEKHADKEDLVILFADSYDVLFASGPRELLKKFRQARSQVVFSAEELIYPDRRLETKYPVVSDGKRFLGSGGFIGYAPNLSKLVAEWEGQDSDSDQLFYTKIFLDPEKREQINITLDHRCRIFQNLDGALDEVVLKFEMGHVRARNLAYDTLPVLIHGNGPTKLQLNYLGNYIPRFWTFETGCTVCDEGLRSLKGIGDEALPTVLVGVFIEQPTPFVSLFFQRLLRLHYPQKHMRLFIHNHEQHHKAQVEEFLAQHGSEYQSVKLVGPEVRMANADARNMGADLCRQDRSCTYYFSVDADVALTEPNSLRLLIQQNKNVIAPLMTRHGRLWSNFWGALSADGYYARSEDYVDIVQGRRVGVWNVPYISNIYLIKGSALRGELQSSDLFHHSKLDPDMAFCANIRQQDVFMFLTNRHTLGHLLSLDSYRTTHLHNDLWEVFSNPEDWKEKYIHQNYTKALAGKLVETPCPDVYWFPIFTEVACDELVEEMEHFGQWSLGNNKDNRIQGGYENVPTIDIHMNQIGFEREWHKFLLEYIAPMTEKLYPGYYTRAQFDLAFVVRYKPDEQPSLMPHHDASTFTINIALNRVGVDYEGGGCRFLRYNCSIRAPRKGWTLMHPGRLTHYHEGLPTTRGTRYIAVSFVDP

System: proteins that co-immunoprecipitated with DUX4-CTD constructs expressed in MB135 myoblasts
Assay: LC-MS of proteins co-immunoprecipitated with DUX4-CTD (Table 1) and western validation
Format: binding, human
Set-up: key to 4. mL1dL2 + Dox + IFNG / 4. + IFNG mix / 4. longCTD + Dox + IFNG / 3. + IFNg + Dox longCTD / 3. + Dox longCTD / 3. + IFNG longCTD: peptide-spectrum matches (PSMs) per protein
Settings: kind of count not given; for 4. + IFNG mix: LC-MS value per protein co-immunoprecipitated from MB135 myoblasts, + IFNG mix sample (no Dox); for 4. mL1dL2 + Dox + IFNG: LC-MS value per protein co-immunoprecipitated with DUX4-CTD construct mL1dL2 in MB135 myoblasts
Outline: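 Two independent experiments compared uninduced, doxycycline and doxycycline+IFNG MB135iDUX4-CTD (plus MB135iDUX4mL1dL2) myoblasts. Anti-FLAG pulldowns (3 h, 4 °C) were eluted in LDS buffer for western validation or with FLAG peptide for trypsin digestion and Orbitrap LC-MS; hits needed ≥2 PSMs in both experiments, ranked by total PSMs.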

| Molecule | 4. + IFNG mix | 4. mL1dL2 + Dox + IFNG |
| --- | --- | --- |
| B1 | 7 | 8 |
| B2 | – | 1 |
| B3 | – | 1 |
| B4 | – | 16 |
| B5 | – | 1 |
| B6 | 6 | 4 |
| B7 | 5 | 1 |
| B8 | – | 2 |
